The chains are these.
B1: PRT-385 (enzyme)
chain: MVTSVWTKGVTPPTNFTYGEDVLHAPYVANQGWYDITKTFNGKDDLLCGAATAGNMLHWWFDQNKEQIENYLKKHPEKQKINFNGEQMFDVKEAIDTKDSQLDSKLFEYFKEKAFPYLSTKHLGVFPDHVIDMFINGYRLSLTNHGPTPVKRGSKDPRGGIFDAVFTRGDQSKLLTNRHDFKEKTLKEISDLIKQELTEGKALGISHTYANGRINHVINLWGADFDAEGNLEAIYVTDSDSNASIGMKKYFVGVNSNGKVAISAKEIEEDNIGAQVLGLFTLSTGQDIWNQTN
B2: PRT-386 (enzyme)
chain: B1 chain with G212V, Y235A
B3: PRT-394 (enzyme)
chain: B1 chain with G212V, N242E
B4: PRT-378 (enzyme)
chain: B1 chain with Y117S, G212V
B5: PRT-393 (enzyme)
chain: B1 chain with G212V, S241T
B6: PRT-401 (enzyme)
chain: MVTSVWTKGVTPPADFTQGEDVFHAPYVANQGWYDITKEFNGKDDLLCGAATAGNMLHWWFDQNKEYIEAYLKKHPEKQKIMFGDQELLDVRKAINTKGSQKNSELFNYFRDKAFPNLSARRLGVMPDLVLDMFINGYYLNVTKTQTTDVNRTYQEKDKRGGIFDAVFTRGDQSKLLTSRHDFKEKGLKEISDLIKQELTEGKALGLSHTYANVRINHVINLWGADFDSDGNLKAIYVTDSDSNASIGMKKYFVGVNSAGKVAISAKEIKEDNIGAQVLGLFTLSTGQDIWNQTN
B7: PRT-409 (enzyme)
chain: B6 chain with E39T, D172V
B8: PRT-402 (enzyme)
chain: B6 chain with E39T, I216L
B9: PRT-410 (enzyme)
chain: B6 chain with E39T, S243T
B10: PRT-417 (enzyme)
chain: MTITSVWTKGVTPPTPEDFRYNNEDVLHAPYVANQGWYDITKTFDGKDNLLCGAATAGNMLHWWFDQNKEEIERYLKKHPEKQKIIFNNQELFDVKAAIDTKDSQTNSKLFNYFRDKAFPNLSARQLGVMPDLVLDMFINGYYLNLGKTQSTDVNRPYQDKDKRGGIFDAVFTRGDQTTLLTARHDLKNKGLNEISDLIKQELTEGKALALSHTYANVRINHVINLWGADFDAEGELIAIYVTDSDANASIGMKKYFVGVNANGKVAISAKKIEGDNIGAQVLGLFTLSTGQDIWQKLS
B11: PRT-418 (enzyme)
chain: B10 chain with E236N, F257A
B12: PRT-425 (enzyme)
chain: B10 chain with N121G, E236N
B13: PRT-443 (enzyme)
chain: MSQTEDSESLQRLRDIEDFQAEKKKQNVVYTKWLDGVDVKDHDFRKIVDGNIAYYATPLLNGRGFYDINKDFNRDSDKCAAAVAANMFHYWLDRNRDNVDRFLRQNPEKHGIIELPDEQLKLSDFLNTYESDDGYRDKSKLFDFISNNFNGPVWTDKLLDNYINGYAYNYKYGRTIEDPTKNTSKINFFKEVFNEKILTNNHSIRNQNEFSVLLSEALYTGKAIGLSYGPAGLRHSLGHIISVWGADLDADGNVVAIYVTDSDDKKLTIGDERVGLKRYKISTDDEGRLRLTAYEETHNTGGQIRGLWTLDTGKQAWADYFDKTEQTGTDQAEQ

Changes are numbered by the printed parent chain.
Further: test concentration or dose not given here.

This assay deals with pooled human IgG (human IgG1, 2, 3 and 4) (human). The assay can be described thus: cell-based or functional assay.
Consider B1, for which the “Enzyme Activity Endpoint Assay: Fab′2” value worked out at 494 ng/µL, the “Enzyme Activity Endpoint Assay: Fc” value was 265 ng/µL, the “Enzyme Activity Endpoint Assay: IgG” value was found to be 103 ng/µL and the “Enzyme Activity Endpoint Assay: scIgG” value is 56 ng/µL.

As to B2, the “Enzyme Activity Endpoint Assay: Fab′2” value is 519 ng/µL, the “Enzyme Activity Endpoint Assay: Fc” value was found to be 337 ng/µL, the “Enzyme Activity Endpoint Assay: IgG” value was 0 ng/µL and the “Enzyme Activity Endpoint Assay: scIgG” value turned out to be 240 ng/µL.

Regarding B3, the “Enzyme Activity Endpoint Assay: Fab′2” value was 482 ng/µL, the “Enzyme Activity Endpoint Assay: Fc” value stood at 323 ng/µL, the “Enzyme Activity Endpoint Assay: IgG” value came out at 0 ng/µL and the “Enzyme Activity Endpoint Assay: scIgG” value stood at 209 ng/µL.

Consider B4, for which the “Enzyme Activity Endpoint Assay: Fab′2” value was 477 ng/µL, the “Enzyme Activity Endpoint Assay: Fc” value came out at 319 ng/µL, the “Enzyme Activity Endpoint Assay: IgG” value worked out at 0 ng/µL and the “Enzyme Activity Endpoint Assay: scIgG” value was determined as 207 ng/µL.

As for B5, the “Enzyme Activity Endpoint Assay: Fab′2” value was determined as 663 ng/µL, the “Enzyme Activity Endpoint Assay: Fc” value was 317 ng/µL, the “Enzyme Activity Endpoint Assay: IgG” value came to 0 ng/µL and the “Enzyme Activity Endpoint Assay: scIgG” value came out at 0 ng/µL.

For B6, the “Enzyme Activity Endpoint Assay: Fab′2” value was 624 ng/µL, the “Enzyme Activity Endpoint Assay: Fc” value came to 329 ng/µL, the “Enzyme Activity Endpoint Assay: IgG” value is 128 ng/µL and the “Enzyme Activity Endpoint Assay: scIgG” value was determined as 0 ng/µL.

Consider B7, for which the “Enzyme Activity Endpoint Assay: Fab′2” value came to 658 ng/µL, the “Enzyme Activity Endpoint Assay: Fc” value was determined as 313 ng/µL, the “Enzyme Activity Endpoint Assay: IgG” value turned out to be 0 ng/µL and the “Enzyme Activity Endpoint Assay: scIgG” value was 0 ng/µL.

As for B8, the “Enzyme Activity Endpoint Assay: Fab′2” value is 530 ng/µL, the “Enzyme Activity Endpoint Assay: Fc” value turned out to be 342 ng/µL, the “Enzyme Activity Endpoint Assay: IgG” value turned out to be 0 ng/µL and the “Enzyme Activity Endpoint Assay: scIgG” value amounted to 188 ng/µL.

Regarding B9, the “Enzyme Activity Endpoint Assay: Fab′2” value amounted to 567 ng/µL, the “Enzyme Activity Endpoint Assay: Fc” value came out at 297 ng/µL, the “Enzyme Activity Endpoint Assay: IgG” value was found to be 206 ng/µL and the “Enzyme Activity Endpoint Assay: scIgG” value was found to be 0 ng/µL.

Turning to B10, the “Enzyme Activity Endpoint Assay: Fab′2” value was 193 ng/µL, the “Enzyme Activity Endpoint Assay: Fc” value worked out at 27 ng/µL, the “Enzyme Activity Endpoint Assay: IgG” value stood at 324 ng/µL and the “Enzyme Activity Endpoint Assay: scIgG” value stood at 0 ng/µL.

With B11, the “Enzyme Activity Endpoint Assay: Fab′2” value turned out to be 382 ng/µL, the “Enzyme Activity Endpoint Assay: Fc” value was found to be 283 ng/µL, the “Enzyme Activity Endpoint Assay: IgG” value stood at 288 ng/µL and the “Enzyme Activity Endpoint Assay: scIgG” value is 149 ng/µL.

Turning to B12, the “Enzyme Activity Endpoint Assay: Fab′2” value was 568 ng/µL, the “Enzyme Activity Endpoint Assay: Fc” value came out at 27 ng/µL, the “Enzyme Activity Endpoint Assay: IgG” value was determined as 169 ng/µL and the “Enzyme Activity Endpoint Assay: scIgG” value was determined as 0 ng/µL.

With B13, the “Enzyme Activity Endpoint Assay: Fab′2” value came out at 17 ng/µL, the “Enzyme Activity Endpoint Assay: Fc” value came to 0 ng/µL, the “Enzyme Activity Endpoint Assay: IgG” value amounted to 431 ng/µL and the “Enzyme Activity Endpoint Assay: scIgG” value came to 535 ng/µL.
